These results are taken from patent US20260062487A1 (GRITSTONE BIO, published 2026).

For experiment [1], the target named is T1, biotinylated refolded G2-pHLA (A*01:01/b2m/…) (human, biotinylated at the C-terminal AviTag).
T1 construct: Soluble complex caught on streptavidin sensors or MSD plates; also called G2-peptide A*01:01/b2m complex; WT
The experiment can be described thus: BLI (ForteBio Octet HTX), biotinylated G2-pHLA captured on streptavidin SAX biosensor, antibody in solution, 1:2 Fit.

For experiment [2], the target named is T2, HLA-PEPTIDE target A*01:01_… (G2) on cells (human).
T2 construct: whole, on cells; also recovered from cell lysates in the IP-MS experiment; also called G2 pHLA; G2 target
In words: flow cytometry, A375 cells engineered to express the G2 peptide.
Experimental: Tumor cells engineered to express target peptide were harvested, washed in PBS, and stained with eBioscience Fixable Viability Dye eFluor 450 for 15 minutes at room temperature. Following another wash in PBS+1-2% FBS, cells were resuspended with the indicated molecules at varying concentrations and incubated for 1 hour at 4° C. After another wash, PE-conjugated goat anti-human IgG secondary antibody (Jackson ImmunoResearch) was added at 1:100 to 1:200 for 30 minutes at 4° C. After washing in PBS+1-2% FBS, cells were resuspended in PBS+1-2% FBS and analyzed by flow cytometry. Flow cytometric analysis was performed on the Attune NxT Flow Cytometer (ThermoFisher) using the Attune NxT Software. Data was analyzed using FlowJo.

In experiment [3] the target is T1, biotinylated refolded G2-pHLA …. The experiment can be described thus: BLI (ForteBio Octet HTX), biotinylated G2-pHLA captured on streptavidin SAX biosensor, antibody in solution, 1:1 kinetic model. In general terms: In BLI a coated tip is dipped into the sample, and binding shifts an interference pattern.
Text: (§1) The biosensors were then dipped in assay buffer for a baseline. […] The biosensors were finally dipped into wells containing assay buffer to measure the dissociation rate for another 50 seconds. Referencing was completed by having a biosensor with no immobilized ligand dipped into analyte. Kinetic data was processed with Octet™ software using a 1:1 kinetic model with errors within 10%, X² below 3, and R² above 0.9.
For experiment [4] the target is unchanged. In words: BLI (ForteBio Octet HTX), biotinylated G2-pHLA captured on streptavidin SAX biosensor, antibody in solution, 1:1 Fit.
Text: as §1
Experiment [5] has the same target. The experiment can be described thus: BLI (Octet), biotinylated pHLA on streptavidin sensor, bivalent antibody as analyte (apparent affinity).
Text: as §1
In experiment [6] the target is biotinylated G5-pHLA (HLA-B*35:01 with …) (human). The experiment can be described thus: BLI (ForteBio Octet HTX), biotinylated G5-pHLA captured on streptavidin SAX biosensor, antibody in solution, 1:2 Fit.
The target is the same in experiment [7]. The experiment can be described thus: BLI (ForteBio Octet HTX), biotinylated G5-pHLA captured on streptavidin SAX biosensor, antibody in solution, 1:1 Fit.
Text: as §1
A further experiment addresses T3, CD3 on CD3+ Jurkat cells (human, UniProt P07766 23-207).
T3 construct: whole, on cells
In words: flow cytometry, anti IgG PE, CD3+ Jurkat cells. (In general: In flow cytometry, cells or beads pass a laser one at a time.)

Experiment [8] concerns the target T2, HLA-PEPTIDE target A*01:01_… (G2) on …. In words: flow cytometry, anti IgG PE, A375 9mer cells (1e6 copies per cell).
Experimental: A375 transduced with luciferase alone served as the negative control. […] Binding was determined by flow cytometery using an anti IgG-PE antibody for detection.

Positions count from the first letter of the chain named.

T3 sequence (P07766 23-207): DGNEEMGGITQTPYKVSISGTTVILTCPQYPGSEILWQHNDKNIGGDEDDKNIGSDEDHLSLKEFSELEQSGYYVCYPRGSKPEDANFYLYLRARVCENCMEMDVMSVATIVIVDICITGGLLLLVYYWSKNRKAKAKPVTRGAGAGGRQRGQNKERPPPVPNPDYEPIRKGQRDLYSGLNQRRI
Experimental for CD3 on CD3+ Jurkat cells: Increasing concentrations of the antibodies were incubated with CD3(+) and CD9(−) Jurkat cells. Binding was determined by flow cytometery using an anti IgG-PE antibody for detection.

B1: Format 4-G2(1H11) hOKT3a (non-shortened linkers, without DSB) (bispecific antibody, human IgG1, kappa, N297Q)
chain: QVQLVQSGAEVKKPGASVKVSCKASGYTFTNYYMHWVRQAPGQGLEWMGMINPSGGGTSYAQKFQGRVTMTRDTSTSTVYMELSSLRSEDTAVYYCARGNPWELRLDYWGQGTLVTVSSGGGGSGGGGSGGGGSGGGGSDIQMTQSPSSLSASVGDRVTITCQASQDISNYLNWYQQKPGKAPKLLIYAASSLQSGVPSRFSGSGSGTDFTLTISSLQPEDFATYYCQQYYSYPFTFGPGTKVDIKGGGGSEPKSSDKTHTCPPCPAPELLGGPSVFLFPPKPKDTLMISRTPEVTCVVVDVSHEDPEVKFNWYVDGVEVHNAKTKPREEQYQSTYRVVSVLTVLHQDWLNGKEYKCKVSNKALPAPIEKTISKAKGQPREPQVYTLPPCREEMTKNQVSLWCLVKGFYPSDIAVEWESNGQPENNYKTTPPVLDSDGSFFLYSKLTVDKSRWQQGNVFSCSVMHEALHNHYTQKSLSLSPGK
heavy: QVQLVQSGAEVKKPGASVKVSCKASGYTFTNYYMHWVRQAPGQGLEWMGMINPSGGGTSYAQKFQGRVTMTRDTSTSTVYMELSSLRSEDTAVYYCARGNPWELRLDYWGQGTLVTVSSGGGGSGGGGSGGGGSGGGGSDIQMTQSPSSLSASVGDRVTITCQASQDISNYLNWYQQKPGKAPKLLIYAASSLQSGVPSRFSGSGSGTDFTLTISSLQPEDFATYYCQQYYSYPFTFGPGTKVDIKGGGGSGGGGSQVQLVQSGAEVKKPGASVKVSCKASGYTFTRYTMHWVRQAPGQGLEWMGYINPSRGYTNYNQKFKDRVTLTTDKSSSTAYMELSSLRSEDTAVYYCARYYDDHYSLDYWGQGTLVTVSSASTKGPSVFPLAPSSKSTSGGTAALGCLVKDYFPEPVTVSWNSGALTSGVHTFPAVLQSSGLYSLSSVVTVPSSSLGTQTYICNVNHKPSNTKVDKRVEPKSCDKTHTCPPCPAPELLGGPSVFLFPPKPKDTLMISRTPEVTCVVVDVSHEDPEVKFNWYVDGVEVHNAKTKPREEQYQSTYRVVSVLTVLHQDWLNGKEYKCKVSNKALPAPIEKTISKAKGQPREPQVCTLPPSREEMTKNQVSLSCAVKGFYPSDIAVEWESNGQPENNYKTTPPVLDSDGSFFLVSKLTVDKSRWQQGNVFSCSVMHEALHNRFTQKSLSLSPGK
light: DIQMTQSPSSLSASVGDRVTITCSASSSVSYMNWYQQKPGKAPKRLIYDTSKLASGVPSRFSGSGSGTDFTLTISSLQPEDFATYYCQQWSSNPFTFGQGTKLEIKRTVAAPSVFIFPPSDEQLKSGTASVVCLLNNFYPREAKVQWKVDNALQSGNSQESVTEQDSKDSTYSLSSTLTLSKADYEKHKVYACEVTHQGLSSPVTKSFNRGEC
notes: In solution a mixture of 2xscFv and diabody conformations; also called G2 Format 4 bispecific; G2(1H11)hOKT3a 2xscFv
For the molecule B1, the figures for the Kd in [1], in experiment [4] and in [5] were 1640 nM, 30.3 nM and 18 nM, respectively. In addition, the koff was found to be 0.324 s⁻¹ in [1], 0.00397 s⁻¹ in experiment [3] and 0.0277 s⁻¹ in [4]. Further, the on-rate constant (kon) in [1] amounted to 198000 M⁻¹ s⁻¹; in [4], 913000 M⁻¹ s⁻¹. Further, the EC50 in experiment [2] came out at 9.8 nM.

B2: 41-G5(1C12) hOKT3a (Format 4-G5(1C12) hOKT3a with shortened 10 amino acid L1 and L2 linkers) (bispecific antibody, human IgG1, kappa, N297Q)
chain: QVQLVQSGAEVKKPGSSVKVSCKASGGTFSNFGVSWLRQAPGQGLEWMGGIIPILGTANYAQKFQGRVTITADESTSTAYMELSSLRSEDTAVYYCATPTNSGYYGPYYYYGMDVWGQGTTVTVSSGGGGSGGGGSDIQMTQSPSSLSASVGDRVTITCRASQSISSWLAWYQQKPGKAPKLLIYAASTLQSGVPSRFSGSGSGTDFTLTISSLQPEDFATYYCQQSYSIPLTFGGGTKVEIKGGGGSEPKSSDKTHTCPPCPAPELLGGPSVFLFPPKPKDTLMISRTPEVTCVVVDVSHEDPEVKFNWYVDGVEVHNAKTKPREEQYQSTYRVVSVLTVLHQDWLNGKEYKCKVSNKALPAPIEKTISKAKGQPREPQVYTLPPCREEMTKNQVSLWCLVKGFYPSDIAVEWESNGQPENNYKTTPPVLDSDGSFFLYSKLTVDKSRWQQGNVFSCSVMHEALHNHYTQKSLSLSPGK
heavy: QVQLVQSGAEVKKPGSSVKVSCKASGGTFSNFGVSWLRQAPGQGLEWMGGIIPILGTANYAQKFQGRVTITADESTSTAYMELSSLRSEDTAVYYCATPTNSGYYGPYYYYGMDVWGQGTTVTVSSGGGGSGGGGSDIQMTQSPSSLSASVGDRVTITCRASQSISSWLAWYQQKPGKAPKLLIYAASTLQSGVPSRFSGSGSGTDFTLTISSLQPEDFATYYCQQSYSIPLTFGGGTKVEIKGGGGSGGGGSQVQLVQSGAEVKKPGASVKVSCKASGYTFTRYTMHWVRQAPGQGLEWMGYINPSRGYTNYNQKFKDRVTLTTDKSSSTAYMELSSLRSEDTAVYYCARYYDDHYSLDYWGQGTLVTVSSASTKGPSVFPLAPSSKSTSGGTAALGCLVKDYFPEPVTVSWNSGALTSGVHTFPAVLQSSGLYSLSSVVTVPSSSLGTQTYICNVNHKPSNTKVDKRVEPKSCDKTHTCPPCPAPELLGGPSVFLFPPKPKDTLMISRTPEVTCVVVDVSHEDPEVKFNWYVDGVEVHNAKTKPREEQYQSTYRVVSVLTVLHQDWLNGKEYKCKVSNKALPAPIEKTISKAKGQPREPQVCTLPPSREEMTKNQVSLSCAVKGFYPSDIAVEWESNGQPENNYKTTPPVLDSDGSFFLVSKLTVDKSRWQQGNVFSCSVMHEALHNRFTQKSLSLSPGK
light: B1 light
notes: also called 4-G5(1C12)_10AAL hOKT3a; G5(1C12)_10AAL
For B2, in [6], the Kd was 16.1 nM, the koff worked out at 0.00652 s⁻¹ and the kon worked out at 405000 M⁻¹ s⁻¹. In experiment [7], this molecule showed a Kd of 2.2 nM, a koff of 0.00279 s⁻¹ and a kon of 1.27e+06 M⁻¹ s⁻¹.

B3: Format 4-G2(1H11) hOKT3a with shortened 10 amino acid L1 and L2 linkers (bispecific antibody, human IgG1, kappa, N297Q)
chain: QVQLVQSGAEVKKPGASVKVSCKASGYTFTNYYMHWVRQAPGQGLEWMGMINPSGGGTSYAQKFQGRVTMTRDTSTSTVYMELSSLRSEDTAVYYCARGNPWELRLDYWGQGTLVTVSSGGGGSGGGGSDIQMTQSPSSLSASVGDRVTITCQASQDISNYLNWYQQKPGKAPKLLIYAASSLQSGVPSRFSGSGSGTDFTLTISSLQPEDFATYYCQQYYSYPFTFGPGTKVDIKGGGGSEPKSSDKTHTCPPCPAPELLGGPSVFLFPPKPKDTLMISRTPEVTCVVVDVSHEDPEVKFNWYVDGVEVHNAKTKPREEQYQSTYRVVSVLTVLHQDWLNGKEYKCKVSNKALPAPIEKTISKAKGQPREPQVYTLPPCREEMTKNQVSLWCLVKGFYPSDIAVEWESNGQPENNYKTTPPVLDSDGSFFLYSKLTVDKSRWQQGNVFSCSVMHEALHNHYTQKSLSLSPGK
heavy: QVQLVQSGAEVKKPGASVKVSCKASGYTFTNYYMHWVRQAPGQGLEWMGMINPSGGGTSYAQKFQGRVTMTRDTSTSTVYMELSSLRSEDTAVYYCARGNPWELRLDYWGQGTLVTVSSGGGGSGGGGSDIQMTQSPSSLSASVGDRVTITCQASQDISNYLNWYQQKPGKAPKLLIYAASSLQSGVPSRFSGSGSGTDFTLTISSLQPEDFATYYCQQYYSYPFTFGPGTKVDIKGGGGSGGGGSQVQLVQSGAEVKKPGASVKVSCKASGYTFTRYTMHWVRQAPGQGLEWMGYINPSRGYTNYNQKFKDRVTLTTDKSSSTAYMELSSLRSEDTAVYYCARYYDDHYSLDYWGQGTLVTVSSASTKGPSVFPLAPSSKSTSGGTAALGCLVKDYFPEPVTVSWNSGALTSGVHTFPAVLQSSGLYSLSSVVTVPSSSLGTQTYICNVNHKPSNTKVDKRVEPKSCDKTHTCPPCPAPELLGGPSVFLFPPKPKDTLMISRTPEVTCVVVDVSHEDPEVKFNWYVDGVEVHNAKTKPREEQYQSTYRVVSVLTVLHQDWLNGKEYKCKVSNKALPAPIEKTISKAKGQPREPQVCTLPPSREEMTKNQVSLSCAVKGFYPSDIAVEWESNGQPENNYKTTPPVLDSDGSFFLVSKLTVDKSRWQQGNVFSCSVMHEALHNRFTQKSLSLSPGK
light: B1 light
notes: also called 4-G2(1H11)-10AAL hOKT3a; G2(1H11)_10AAL
In experiment [1], B3 yielded a Kd of 301 nM, a koff of 0.0746 s⁻¹ and an on-rate (kon) of 248000 M⁻¹ s⁻¹. In [4], this molecule showed a Kd of 6.35 nM, a koff of 0.00608 s⁻¹ and a kon of 958000 M⁻¹ s⁻¹.

B4: Format 4-G2(1H11) hOKT3a with engineered VH44/VL100 disulfide bond (DSB) (bispecific antibody, human IgG1, kappa, N297Q)
chain: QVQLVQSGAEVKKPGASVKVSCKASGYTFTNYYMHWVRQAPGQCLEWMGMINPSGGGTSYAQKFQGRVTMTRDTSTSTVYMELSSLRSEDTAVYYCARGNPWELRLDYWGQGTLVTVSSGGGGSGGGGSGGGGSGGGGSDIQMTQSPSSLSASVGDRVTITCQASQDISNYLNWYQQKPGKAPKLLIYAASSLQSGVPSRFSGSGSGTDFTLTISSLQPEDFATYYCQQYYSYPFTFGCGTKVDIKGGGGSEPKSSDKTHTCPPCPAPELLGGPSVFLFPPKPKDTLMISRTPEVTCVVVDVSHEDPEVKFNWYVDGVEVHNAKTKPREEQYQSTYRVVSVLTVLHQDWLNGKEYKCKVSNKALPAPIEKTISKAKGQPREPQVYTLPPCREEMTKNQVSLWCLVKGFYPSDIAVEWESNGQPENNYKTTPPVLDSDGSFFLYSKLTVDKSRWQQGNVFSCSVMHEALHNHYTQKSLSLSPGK
heavy: B1 heavy with G44C, P239C
light: B1 light
notes: also called 4-G2(1H11)-H44/L100 hOKT3a-TM; Format 4 G2(1H11)-hOKT3_DSBH44/L100
On to B4, for which the midpoint of the response in [2], the EC50, lay at 1750 nM. This molecule registered a koff in experiment [3] of 0.025 s⁻¹. Also, in experiment [5], the Kd turned out to be 35.1 nM.

B5: 41-E07 hSP34x (Format 41 31E07-CD3 bispecific antibody) (bispecific antibody)
chain: QVQLVQSGAEVKKPGASVKVSCKASGFTFTNYLIHWVRQAPGQGLEWMGWINPNSGGTNYAQRLQGRVTMTRDTSTSTVYMELSSLRSEDTAVYYCARDYGAGNDYWGQGTLVTVSSGGGGSGGGGSDIQMTQSPSSLSASVGDRVTITCRASQEIRRWLAWYQQKPGKAPKLLIYAASNLQSGVPSRFSGSGSGTDFTLTISSLQPEDFATYYCQQSYSTPYTFGQGTKLEIKGGGGSEPKSSDKTHTCPPCPAPEFEGGPSVFLFPPKPKDTLMISRTPEVTCVVVDVSHEDPEVKFNWYVDGVEVHNAKTKPREEQYNSTYRVVSVLTVLHQDWLNGKEYKCKVSNKALPASIEKTISKAKGQPREPQVYTLPPCREEMTKNQVSLWCLVKGFYPSDIAVEWESNGQPENNYKTTPPVLDSDGSFFLYSKLTVDKSRWQQGNVFSCSVMHEALHNHYTQKSLSLSPGK
heavy: QVQLVQSGAEVKKPGASVKVSCKASGFTFTNYLIHWVRQAPGQGLEWMGWINPNSGGTNYAQRLQGRVTMTRDTSTSTVYMELSSLRSEDTAVYYCARDYGAGNDYWGQGTLVTVSSGGGGSGGGGSDIQMTQSPSSLSASVGDRVTITCRASQEIRRWLAWYQQKPGKAPKLLIYAASNLQSGVPSRFSGSGSGTDFTLTISSLQPEDFATYYCQQSYSTPYTFGQGTKLEIKGGGGSGGGGSEVQLVESGGGLVQPGGSLRLSCAASGFTFSTYAMNWVRQAPGKGLEWVGRIRSKYNNYATYYADSVKGRFTISRDDSKNTLYLQMNSLRAEDTAVYYCVRHGNFGDSYVSWFAYWGQGTLVTVSSASTKGPSVFPLAPSSKSTSGGTAALGCLVKDYFPEPVTVSWNSGALTSGVHTFPAVLQSSGLYSLSSVVTVPSSSLGTQTYICNVNHKPSNTKVDKRVEPKSCDKTHTCPPCPAPEFEGGPSVFLFPPKPKDTLMISRTPEVTCVVVDVSHEDPEVKFNWYVDGVEVHNAKTKPREEQYNSTYRVVSVLTVLHQDWLNGKEYKCKVSNKALPASIEKTISKAKGQPREPQVCTLPPSREEMTKNQVSLSCAVKGFYPSDIAVEWESNGQPENNYKTTPPVLDSDGSFFLVSKLTVDKSRWQQGNVFSCSVMHEALHNRFTQKSLSLSPGK
light: QAVVTQEPSLTVSPGGTVTLTCGSSTGAVTTSNYANWVQQKPGKSPRGLIGGTNKRAPGVPARFSGSLLGGKAALTISGAQPEDEADYYCALWYSNHWVFGGGTKLTVLRTVAAPSVFIFPPSDEQLKSGTASVVCLLNNFYPREAKVQWKVDNALQSGNSQESVTEQDSKDSTYSLSSTLTLSKADYEKHKVYACEVTHQGLSSPVTKSFNRGEC
notes: also called 41-31E07-hSP34x
In the case of B5, the “EC50 (read off the curve)” value is approximately 6 nM with CD3 on CD3+ Jurkat cells and approximately 2 nM in experiment [8].

The term koff denotes the first-order rate constant of dissociation. A lower koff goes with a long-lived complex. By kon is commonly meant the second-order rate constant of association. Higher therefore signals faster complex formation. The EC50 is the midpoint of the concentration-response curve. By EC50 (read off the curve) is commonly meant the concentration at which the effect is half-maximal.
